Assay results as given in US20210388087A1 (Chugai, published 2021).
Numbering of substitutions follows the chain as printed.

B1: GLS3000 T92I (antibody, name in Kabat numbering, V domains shown)
VH: QVQLVESGGGVVQPGRSLRLSCAASGFTFSNAWMHWVRQAPGKGLEWVAQIKAKSNNYATYYAESVKGRFTISRDDSKNSLYLQMNSLKTEDTAVYYCRYVHYGAYYGVDAWGQGTTVTVSS
VL: DIVMTQSPLSLPVTPGEPASISCRSSQSLVHSNRNTYLHWYQQKPGQAPRLLIYKVSNRFSGVPDRFSGSGSGTDFTLKISRVEAEDVGVYYCGQGIQVPYTFGQGTKLEIK
notes: one-arm IgG as m2
B2: GLS3000 V94I (antibody, name in Kabat numbering, V domains shown)
VH: B1 VH
VL: B1 VL with I97T, V99I
notes: one-arm IgG as m2
B3: GLS3000 V94Q (antibody, name in Kabat numbering, V domains shown)
VH: B1 VH
VL: B1 VL with I97T, V99Q
notes: one-arm IgG as m2
B4: GLS3000 Y96H (antibody, name in Kabat numbering, V domains shown)
VH: B1 VH
VL: B1 VL with I97T, Y101H
notes: one-arm IgG as m2
B5: GLS3000 V94D (antibody, name in Kabat numbering, V domains shown)
VH: B1 VH
VL: B1 VL with I97T, V99D
notes: one-arm IgG as m2
B6: GLS3000 T97P (antibody, name in Kabat numbering, V domains shown)
VH: B1 VH
VL: B1 VL with I97T, T102P
notes: one-arm IgG as m2
B7: GLS3000 V51D (antibody, name in Kabat numbering, V domains shown)
VH: B1 VH
VL: B1 VL with V56D, I97T
notes: one-arm IgG as m2
B8: GLS3000 V94L (antibody, name in Kabat numbering, V domains shown)
VH: B1 VH
VL: B1 VL with I97T, V99L
notes: one-arm IgG as m2
B9: GLS3000 T92Y (antibody, name in Kabat numbering, V domains shown)
VH: B1 VH
VL: B1 VL with I97Y
notes: one-arm IgG as m2
B10: GLS3000 V94G (antibody, name in Kabat numbering, V domains shown)
VH: B1 VH
VL: B1 VL with I97T, V99G
notes: one-arm IgG as m2
B11: GLS3000 V94W (antibody, name in Kabat numbering, V domains shown)
VH: B1 VH
VL: B1 VL with I97T, V99W
notes: one-arm IgG as m2
B12: GLS3000 V94E (antibody, name in Kabat numbering, V domains shown)
VH: B1 VH
VL: B1 VL with I97T, V99E
notes: one-arm IgG as m2
B13: GLS3000 V94Y (antibody, name in Kabat numbering, V domains shown)
VH: B1 VH
VL: B1 VL with I97T, V99Y
notes: one-arm IgG as m2
B14: GLS3000 T92S (antibody, name in Kabat numbering, V domains shown)
VH: B1 VH
VL: B1 VL with I97S
notes: one-arm IgG as m2
B15: GLS3000 V94F (antibody, name in Kabat numbering, V domains shown)
VH: B1 VH
VL: B1 VL with I97T, V99F
notes: one-arm IgG as m2
B16: GLS3000 V51I (antibody, name in Kabat numbering, V domains shown)
VH: B1 VH
VL: B1 VL with V56I, I97T
notes: one-arm IgG as m2
B17: GLS3000 Y32A (antibody, name in Kabat numbering, V domains shown)
VH: B1 VH
VL: B1 VL with Y37A, I97T
notes: one-arm IgG as m2
B18: GLS3000 V94T (antibody, name in Kabat numbering, V domains shown)
VH: B1 VH
VL: B1 VL with I97T, V99T
notes: one-arm IgG as m2
B19: GLS3000 V27cL (antibody, name in Kabat numbering, V domains shown)
VH: B1 VH
VL: B1 VL with V30L, I97T
notes: one-arm IgG as m2
B20: GLS3000 Y32F (antibody, name in Kabat numbering, V domains shown)
VH: B1 VH
VL: B1 VL with Y37F, I97T
notes: one-arm IgG as m2
B21: GLS3000 V27cS (antibody, name in Kabat numbering, V domains shown)
VH: B1 VH
VL: B1 VL with V30S, I97T
notes: one-arm IgG as m2
B22: GLS3000 V51P (antibody, name in Kabat numbering, V domains shown)
VH: B1 VH
VL: B1 VL with V56P, I97T
notes: one-arm IgG as m2
B23: GLS3000 V27cP (antibody, name in Kabat numbering, V domains shown)
VH: B1 VH
VL: B1 VL with V30P, I97T
notes: one-arm IgG as m2
B24: GLS3000 V94A (antibody, name in Kabat numbering, V domains shown)
VH: B1 VH
VL: B1 VL with I97T, V99A
notes: one-arm IgG as m2
B25: GLS3000 V94S (antibody, name in Kabat numbering, V domains shown)
VH: B1 VH
VL: B1 VL with I97T, V99S
notes: one-arm IgG as m2
B26: GLS3000 V51G (antibody, name in Kabat numbering, V domains shown)
VH: B1 VH
VL: B1 VL with V56G, I97T
notes: one-arm IgG as m2
B27: GLS3000 Y96F (antibody, name in Kabat numbering, V domains shown)
VH: B1 VH
VL: B1 VL with I97T, Y101F
notes: one-arm IgG as m2
B28: GLS3000 T92P (antibody, name in Kabat numbering, V domains shown)
VH: B1 VH
VL: B1 VL with I97P
notes: one-arm IgG as m2
B29: GLS3000 V94M (antibody, name in Kabat numbering, V domains shown)
VH: B1 VH
VL: B1 VL with I97T, V99M
notes: one-arm IgG as m2
B30: GLS3000 Y96E (antibody, name in Kabat numbering, V domains shown)
VH: B1 VH
VL: B1 VL with I97T, Y101E
notes: one-arm IgG as m2
B31: GLS3000 T92L (antibody, name in Kabat numbering, V domains shown)
VH: B1 VH
VL: B1 VL with I97L
notes: one-arm IgG as m2
B32: GLS3000 Y32D (antibody, name in Kabat numbering, V domains shown)
VH: B1 VH
VL: B1 VL with Y37D, I97T
notes: one-arm IgG as m2
B33: GLS3000 V27cD (antibody, name in Kabat numbering, V domains shown)
VH: B1 VH
VL: B1 VL with V30D, I97T
notes: one-arm IgG as m2
B34: GLS3000 Y96D (antibody, name in Kabat numbering, V domains shown)
VH: B1 VH
VL: B1 VL with I97T, Y101D
notes: one-arm IgG as m2
B35: GLS3000 V94N (antibody, name in Kabat numbering, V domains shown)
VH: B1 VH
VL: B1 VL with I97T, V99N
notes: one-arm IgG as m2
B36: GLS3000 V27cI (antibody, name in Kabat numbering, V domains shown)
VH: B1 VH
VL: B1 VL with V30I, I97T
notes: one-arm IgG as m2
B37: GLS3000 V51E (antibody, name in Kabat numbering, V domains shown)
VH: B1 VH
VL: B1 VL with V56E, I97T
notes: one-arm IgG as m2
B38: GLS3000 V27cE (antibody, name in Kabat numbering, V domains shown)
VH: B1 VH
VL: B1 VL with V30E, I97T
notes: one-arm IgG as m2
B39: GLS3000 V94K (antibody, name in Kabat numbering, V domains shown)
VH: B1 VH
VL: B1 VL with I97T, V99K
notes: one-arm IgG as m2
B40: GLS3000 V27cY (antibody, name in Kabat numbering, V domains shown)
VH: B1 VH
VL: B1 VL with V30Y, I97T
notes: one-arm IgG as m2
B41: GLS3000 V94R (antibody, name in Kabat numbering, V domains shown)
VH: B1 VH
VL: B1 VL with I97T, V99R
notes: one-arm IgG as m2
B42: GLS3000 V94H (antibody, name in Kabat numbering, V domains shown)
VH: B1 VH
VL: B1 VL with I97T, V99H
notes: one-arm IgG as m2
B43: GLS3000 Y32P (antibody, name in Kabat numbering, V domains shown)
VH: B1 VH
VL: B1 VL with Y37P, I97T
notes: one-arm IgG as m2
B44: GLS3000 Y96L (antibody, name in Kabat numbering, V domains shown)
VH: B1 VH
VL: B1 VL with I97T, Y101L
notes: one-arm IgG as m2
B45: GLS3000 V94P (antibody, name in Kabat numbering, V domains shown)
VH: B1 VH
VL: B1 VL with I97T, V99P
notes: one-arm IgG as m2

Each binder was assayed against T1, CD3 epsilon homodimer protein (UniProt P07766 23-126) (assay: SPR Biacore T200, CD3e homodimer on chip, vs unaltered GLS3000 antibody).
T1 construct: also called CD3 (CD3 epsilon)
T1 sequence (P07766 23-126): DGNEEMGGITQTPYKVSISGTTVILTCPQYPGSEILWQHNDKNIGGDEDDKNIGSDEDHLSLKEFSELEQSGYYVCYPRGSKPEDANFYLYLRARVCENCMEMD
Procedure: An appropriate amount of CD3 epsilon homodimer protein was immobilized onto Sensor chip CM4 (GE Healthcare Japan Corp.) by the amine coupling method. Then, the antibody having an appropriate concentration was injected thereto as an analyte and allowed to interact with the CD3 epsilon homodimer protein on the sensor chip. Then, the sensor chip was regenerated by the injection of 10 mmol/L glycine-HCl (pH 1.5). The assay was conducted at 25 degrees C., and HBS-EP+(GE Healthcare Japan Corp.) was used as a running buffer. […] Each parameter was calculated using Biacore T200 Evaluation Software (GE Healthcare Japan Corp.).

ratio of amounts bound (Z=Y/X)	Binder
0.34	B1
0.66	B2
0.76	B3
0.23	B4
0.89	B5
0.31	B6
0.33	B7
0.44	B8
0.33	B9
0.48	B10
0.58	B11
0.5	B12
0.63	B13
0.96	B14
0.71	B15
0.81	B16
0.24	B17
0.93	B18
0.84	B19
0.29	B20
0.51	B21
0.32	B22
0.3	B23

ratio of amounts bound (Z=Y/X)	Binder
1.05	B24
0.93	B25
0.84	B26
1.17	B27
0.26	B28
0.44	B29
0.17	B30
0.42	B31
0.23	B32
0.32	B33
0.17	B34
1.05	B35
0.96	B36
0.64	B37
0.61	B38
0.57	B39
0.77	B40
0.66	B41
0.78	B42
0.24	B43
0.32	B44
1.26	B45
